Source: patent US20170342144A1 (Sanofi, published 2017)

T1: human TGFβ3 (human, UniProt P10600 301-412)
T1 sequence: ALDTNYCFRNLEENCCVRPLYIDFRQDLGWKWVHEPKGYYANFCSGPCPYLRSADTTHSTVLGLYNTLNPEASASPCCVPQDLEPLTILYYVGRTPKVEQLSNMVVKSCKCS

T2: human TGFβ2 (human, UniProt P61812 303-414)
T2 construct: also called TGFβ2 homodimer
T2 sequence: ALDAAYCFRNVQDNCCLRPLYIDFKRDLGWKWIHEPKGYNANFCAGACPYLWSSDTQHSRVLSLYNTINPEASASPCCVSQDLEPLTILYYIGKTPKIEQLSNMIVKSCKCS

B1: I52A (antibody, V domains shown)
VH: QVQLVQSGAEVKKPGSSVKVSCKASGYTFSSNVISWVRQAPGQGLEWMGGVAPIVDIANYAQRFKGRVTITADESTSTTYMELSSLRSEDTAVYYCASTLGLVLDAMDYWGQGTLVTVSS
VL: ETVLTQSPGTLSLSPGERATLSCRASQSLGSSYLAWYQQKPGQAPRLLIYGASSRAPGIPDRFSGSGSGTDFTLTISRLEPEDFAVYYCQQYADSPITFGQGTRLEIK
notes: GC1008 IgG4 variant
B2: S31W (antibody, V domains shown)
VH: QVQLVQSGAEVKKPGSSVKVSCKASGYTFSWNVISWVRQAPGQGLEWMGGVIPIVDIANYAQRFKGRVTITADESTSTTYMELSSLRSEDTAVYYCASTLGLVLDAMDYWGQGTLVTVSS
VL: ETVLTQSPGTLSLSPGERATLSCRASQSLGSSYLAWYQQKPGQAPRLLIYGASSRAPGIPDRFSGSGSGTDFTLTISRLEPEDFAVYYCQQYADSPITFGQGTRLEIK
notes: GC1008 IgG4 variant
B3: I52C (antibody, V domains shown)
VH: QVQLVQSGAEVKKPGSSVKVSCKASGYTFSSNVISWVRQAPGQGLEWMGGVCPIVDIANYAQRFKGRVTITADESTSTTYMELSSLRSEDTAVYYCASTLGLVLDAMDYWGQGTLVTVSS
VL: ETVLTQSPGTLSLSPGERATLSCRASQSLGSSYLAWYQQKPGQAPRLLIYGASSRAPGIPDRFSGSGSGTDFTLTISRLEPEDFAVYYCQQYADSPITFGQGTRLEIK
notes: GC1008 IgG4 variant
B4: Y27H (antibody, V domains shown)
VH: QVQLVQSGAEVKKPGSSVKVSCKASGHTFSSNVISWVRQAPGQGLEWMGGVIPIVDIANYAQRFKGRVTITADESTSTTYMELSSLRSEDTAVYYCASTLGLVLDAMDYWGQGTLVTVSS
VL: ETVLTQSPGTLSLSPGERATLSCRASQSLGSSYLAWYQQKPGQAPRLLIYGASSRAPGIPDRFSGSGSGTDFTLTISRLEPEDFAVYYCQQYADSPITFGQGTRLEIK
notes: GC1008 IgG4 variant
B5: I52G (antibody, V domains shown)
VH: QVQLVQSGAEVKKPGSSVKVSCKASGYTFSSNVISWVRQAPGQGLEWMGGVGPIVDIANYAQRFKGRVTITADESTSTTYMELSSLRSEDTAVYYCASTLGLVLDAMDYWGQGTLVTVSS
VL: ETVLTQSPGTLSLSPGERATLSCRASQSLGSSYLAWYQQKPGQAPRLLIYGASSRAPGIPDRFSGSGSGTDFTLTISRLEPEDFAVYYCQQYADSPITFGQGTRLEIK
notes: GC1008 IgG4 variant
B6: I52D (antibody, V domains shown)
VH: QVQLVQSGAEVKKPGSSVKVSCKASGYTFSSNVISWVRQAPGQGLEWMGGVDPIVDIANYAQRFKGRVTITADESTSTTYMELSSLRSEDTAVYYCASTLGLVLDAMDYWGQGTLVTVSS
VL: ETVLTQSPGTLSLSPGERATLSCRASQSLGSSYLAWYQQKPGQAPRLLIYGASSRAPGIPDRFSGSGSGTDFTLTISRLEPEDFAVYYCQQYADSPITFGQGTRLEIK
notes: GC1008 IgG4 variant
B7: I52K (antibody, V domains shown)
VH: QVQLVQSGAEVKKPGSSVKVSCKASGYTFSSNVISWVRQAPGQGLEWMGGVKPIVDIANYAQRFKGRVTITADESTSTTYMELSSLRSEDTAVYYCASTLGLVLDAMDYWGQGTLVTVSS
VL: ETVLTQSPGTLSLSPGERATLSCRASQSLGSSYLAWYQQKPGQAPRLLIYGASSRAPGIPDRFSGSGSGTDFTLTISRLEPEDFAVYYCQQYADSPITFGQGTRLEIK
notes: GC1008 IgG4 variant
B8: I52N (antibody, V domains shown)
VH: QVQLVQSGAEVKKPGSSVKVSCKASGYTFSSNVISWVRQAPGQGLEWMGGVNPIVDIANYAQRFKGRVTITADESTSTTYMELSSLRSEDTAVYYCASTLGLVLDAMDYWGQGTLVTVSS
VL: ETVLTQSPGTLSLSPGERATLSCRASQSLGSSYLAWYQQKPGQAPRLLIYGASSRAPGIPDRFSGSGSGTDFTLTISRLEPEDFAVYYCQQYADSPITFGQGTRLEIK
notes: GC1008 IgG4 variant
B9: I52H (antibody, V domains shown)
VH: QVQLVQSGAEVKKPGSSVKVSCKASGYTFSSNVISWVRQAPGQGLEWMGGVHPIVDIANYAQRFKGRVTITADESTSTTYMELSSLRSEDTAVYYCASTLGLVLDAMDYWGQGTLVTVSS
VL: ETVLTQSPGTLSLSPGERATLSCRASQSLGSSYLAWYQQKPGQAPRLLIYGASSRAPGIPDRFSGSGSGTDFTLTISRLEPEDFAVYYCQQYADSPITFGQGTRLEIK
notes: GC1008 IgG4 variant
B10: V55F (antibody, V domains shown)
VH: QVQLVQSGAEVKKPGSSVKVSCKASGYTFSSNVISWVRQAPGQGLEWMGGVIPIFDIANYAQRFKGRVTITADESTSTTYMELSSLRSEDTAVYYCASTLGLVLDAMDYWGQGTLVTVSS
VL: ETVLTQSPGTLSLSPGERATLSCRASQSLGSSYLAWYQQKPGQAPRLLIYGASSRAPGIPDRFSGSGSGTDFTLTISRLEPEDFAVYYCQQYADSPITFGQGTRLEIK
notes: GC1008 IgG4 variant
B11: I52E (antibody, V domains shown)
VH: QVQLVQSGAEVKKPGSSVKVSCKASGYTFSSNVISWVRQAPGQGLEWMGGVEPIVDIANYAQRFKGRVTITADESTSTTYMELSSLRSEDTAVYYCASTLGLVLDAMDYWGQGTLVTVSS
VL: ETVLTQSPGTLSLSPGERATLSCRASQSLGSSYLAWYQQKPGQAPRLLIYGASSRAPGIPDRFSGSGSGTDFTLTISRLEPEDFAVYYCQQYADSPITFGQGTRLEIK
notes: GC1008 IgG4 variant

How the values were obtained:
human TGFβ3 [1] = molecular target: T1, human TGFβ3; experiment: Biacore, immobilised TGFβ
human TGFβ2 [2] = molecular target: T2, human TGFβ2; experiment: Biacore, immobilised TGFβ
human TGFβ1 [3] = molecular target: T3, human TGFβ1 (human, UniProt P01137 279-390); experiment: Biacore, immobilised TGFβ
T3 construct: also called TGFβ1 homodimer
T3 sequence (P01137 279-390 limits assumed): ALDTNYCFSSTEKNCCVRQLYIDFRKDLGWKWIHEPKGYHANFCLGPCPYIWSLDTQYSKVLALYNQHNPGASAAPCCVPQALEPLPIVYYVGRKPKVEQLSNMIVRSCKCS

human TGFβ3 [4] = molecular target: T1, human TGFβ3; experiment: Biacore off-rate vs wt GC1008, 50 nM
How it was run: (§1)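 Surface plasmon resonance on a Biacore 3000 measured how fast purified antibody variants dissociated from TGFβ isoforms immobilized at about 100 RU. Variants carried single heavy- or light-chain substitutions and were produced by transient Expi293F transfection with Protein A cleanup. Samples at 50 nM were tested in duplicate, and each variant kd was divided by the wild-type control kd to give fold change.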

human TGFβ2 [5] = molecular target: T2, human TGFβ2; experiment: Biacore off-rate vs wt GC1008, 50 nM
How it was run: as §1

human TGFβ1 [6] = molecular target: T3, human TGFβ1; experiment: Biacore off-rate vs wt GC1008, 50 nM
How it was run: as §1

human TGFβ3 [7] = molecular target: T1, human TGFβ3; experiment: Biacore, 3.33-90 nM, 1:1 global fit, vs wt GC1008
Experimental: (§2) In FIG. 6C, seventeen mutants were selected and scaled up to produce sufficient amount of purified protein for KD (equilibrium constant=kd/ka) analysis by Biacore. Multiple concentrations (90, 30, 10 and 3.33 nM) were used in duplicate on the 150 RU level TGFβ1, 2, and 3 immobilized surfaces. KD was calculated using global curve fitting analysis for a 1-to-1 Langmuir binding model. The experimental data from all four concentrations were used for calculation except for I54N and I54R mutants, where only the top 2 concentrations were used. The fold changes in KD were compared to the fold changes in kd (off rate) presented in FIG. 6B, and a heat map was generated for visualization. Similar fold changes were observed from the two data sets, confirming the validity of using kd as a parameter for screening of 155 single mutants as shown in FIG. 6B.

human TGFβ2 [8] = molecular target: T2, human TGFβ2; experiment: Biacore, 3.33-90 nM, 1:1 global fit, vs wt GC1008
Experimental: as §2

human TGFβ1 [9] = molecular target: T3, human TGFβ1; experiment: Biacore, 3.33-90 nM, 1:1 global fit, vs wt GC1008
Experimental: as §2

human TGFβ3 [10] = molecular target: T1, human TGFβ3; experiment: Biacore off-rate vs wt GC1008
Description: (§3) Plasmids encoding either the GC1008 heavy chain or light chain were used as a template in PCR-based mutagenesis reactions. Mutations to the encoding DNA were made to create 155 single amino acid substitutions of the encoded heavy chain amino acid sequence and one single amino acid substitution of the encoded light chain amino acid sequence. A QuikChange® Lightning Site-Directed Mutagenesis kit (Agilent Technologies, Santa Clara Calif.) was used according to the manufacturer's instructions to create DNA mutations using a set of forward and reverse primers, either designed for a specific amino acid or for all 20 amino acids with a degenerate codon (NNK). After sequencing confirmation, identified mutant DNA was paired with a wild-type light or heavy chain DNA for transfection into an Expi293F™ host cell suspension (Life Techonologies Corp., Grand Island, N.Y.). At 4 days post-transfection, conditioned media (1 mL) was harvested and purified using a 1 mL Protein A PhyTip® column (PhyNexus, Inc., San Jose, Calif.) and a PureSpeed™ 12-channel pipette (Rainin Instrument LLC, Oakland, Calif.). Purified variant antibody samples were analyzed in duplicate on a Biacore® 3000 (GE Healthcare) at 50 nM concentrations, using the 100 RU level TGFβ1, 2, and 3 immobilized surfaces. The off-rate (kd) of the variants was divided by the kd of the wild-type control to obtain the fold change in the kd. […] A heat map was generated to visualize the results. Variants that completely lost affinity for TGFβ were shown in red without numbers.

human TGFβ2 [11] = molecular target: T2, human TGFβ2; experiment: Biacore off-rate vs wt GC1008
Description: as §3

human TGFβ1 [12] = molecular target: T3, human TGFβ1; experiment: Biacore off-rate vs wt GC1008
Description: as §3

Binder	binding result (human TGFβ3 [1])	binding result (human TGFβ2 [2])	binding result (human TGFβ1 [3])	kd var/kd wt (human TGFβ3 [4])	kd var/kd wt (human TGFβ2 [5])	kd var/kd wt (human TGFβ1 [6])	KD mutant/KD wt (human TGFβ3 [7])	KD mutant/KD wt (human TGFβ2 [8])	KD mutant/KD wt (human TGFβ1 [9])	kd mutant/kd wt (human TGFβ3 [10])	kd mutant/kd wt (human TGFβ2 [11])	kd mutant/kd wt (human TGFβ1 [12])
B1	no binding (tested: 50 nM)	no binding (tested: 50 nM)	no binding (tested: 50 nM)	–	–	–	–	–	–	–	–	–
B2	–	–	–	1.6	1.4	1.7	1.3	1.3	1.3	1.6	1.4	1.7
B3	no binding (tested: 50 nM)	no binding (tested: 50 nM)	no binding (tested: 50 nM)	–	–	–	–	–	–	–	–	–
B4	–	–	–	1.4	1.4	1.5	1.1	1.3	1.2	1.4	1.4	1.5
B5	no binding (tested: 50 nM)	no binding (tested: 50 nM)	no binding (tested: 50 nM)	–	–	–	–	–	–	–	–	–
B6	no binding (tested: 50 nM)	no binding (tested: 50 nM)	no binding (tested: 50 nM)	–	–	–	–	–	–	–	–	–
B7	no binding (tested: 50 nM)	no binding (tested: 50 nM)	no binding (tested: 50 nM)	–	–	–	–	–	–	–	–	–
B8	no binding (tested: 50 nM)	no binding (tested: 50 nM)	no binding (tested: 50 nM)	–	–	–	–	–	–	–	–	–
B9	no binding (tested: 50 nM)	no binding (tested: 50 nM)	no binding (tested: 50 nM)	–	–	–	–	–	–	–	–	–
B10	–	–	–	1.2	0.9	1.2	0.8	0.6	1	1.2	0.9	1.2
B11	no binding (tested: 50 nM)	no binding (tested: 50 nM)	no binding (tested: 50 nM)	–	–	–	–	–	–	–	–	–
